Assays:
[1] = biological target: '3tag' PCNA^S228I (human) (UniProt P12004); assay: SPR; reverse orientation: ~1000 RU biotinylated 3tag-PCNA on an SA chip; GST-PIP fusion as analyte, single cycle kinetics (Cdt1 highest 44.5 μM, p21 highest 27.9 μM); HBS-EP with 1 g/l BSA
GST-p21 PIP box fusion = GST-p21 PIP box fusion (UniProt P38936); assay: SPR; ~1000 RU GST-PIP fusion bound to a CM5 chip (acetate pH 5.5), GST as control lane; His-S-PCNA as analyte, 10 point 2x dilution series from 12 μM; equilibrium of binding, steady state affinity fit; HBS-EP (0.01 M HEPES pH 7.4, 0.15 M NaCl, 3 mM EDTA, 0.0005% IGEPAL) with 1 g/l BSA; Biacore T200
UniProt P38936, sequence (P38936 whole entry, the tested form may be a part): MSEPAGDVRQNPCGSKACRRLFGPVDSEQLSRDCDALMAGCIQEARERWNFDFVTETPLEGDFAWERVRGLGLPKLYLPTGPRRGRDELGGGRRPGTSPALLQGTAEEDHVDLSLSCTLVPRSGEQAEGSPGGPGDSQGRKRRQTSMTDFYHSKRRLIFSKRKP

GST-Fen1 PIP box fusion = GST-Fen1 PIP box fusion (UniProt P39748); assay: as above
UniProt P39748, sequence (P39748 whole entry, the tested form may be a part): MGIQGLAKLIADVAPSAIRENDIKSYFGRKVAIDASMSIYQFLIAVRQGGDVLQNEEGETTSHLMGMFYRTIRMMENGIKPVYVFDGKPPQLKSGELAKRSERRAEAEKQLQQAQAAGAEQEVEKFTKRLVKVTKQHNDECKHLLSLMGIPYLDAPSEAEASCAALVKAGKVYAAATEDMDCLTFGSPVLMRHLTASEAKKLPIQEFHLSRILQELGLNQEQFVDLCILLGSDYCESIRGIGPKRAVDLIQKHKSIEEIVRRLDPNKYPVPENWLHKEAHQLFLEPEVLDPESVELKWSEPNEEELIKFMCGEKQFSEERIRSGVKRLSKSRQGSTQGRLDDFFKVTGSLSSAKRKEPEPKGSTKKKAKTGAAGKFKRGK

| reduction of the affinity against PCNA^WT [1] [%] | Kd (GST-p21 PIP box fusion) [µM] | Kd (GST-Fen1 PIP box fusion) [µM] | Substance |
| --- | --- | --- | --- |
| 10 |  |  | GST-p21 PIP box fusion (from UniProt P38936 1-164) (domain or fragment) |
|  | 3.7 | 15 | His-S-tagged PCNA^S228I (from UniProt P12004 1-258) (natural protein) |
|  | 1.8 | 1.1 | His-S-tagged PCNA^WT (from UniProt P12004 1-261) (natural protein) |

Reference: paper PMC5264654
